Experimental data published in US20060030527A1 (TRANSTECH PHARMA, published 2006).
One block for each binder: values may come before it.

How the values were obtained:
[1] = target: T1, Amyloid Beta (1-40) from Biosource (UniProt P05067 672-711); assay: ELISA, immobilised ligand, dilutions of a 1.082 mg/mL solution
T1 construct: domain: Amyloid Beta (1-40); Immobilised on Maxisorb plates; amyloid beta 1-40 is a fragment of it; also called Abeta; A-beta
Description: (§1) Known RAGE ligands were coated onto the surface of Maxisorb plates at a concentration of 5 micrograms per well. Plates were incubated at 4° C. overnight. Following ligand incubation, plates were aspirated and a blocking buffer of 1% BSA in 50 mM imidizole buffer (pH 7.2) was added to the plates for 1 hour at room temperature. The plates were then aspirated and/or washed with wash buffer (20 mM Imidizole, 150 mM NaCl, 0.05% Tween-20, 5 mM CaCl₂ and 5 mM MgCl₂, pH 7.2). […] The fusion protein was added at increasing dilutions of the initial sample. The RAGE fusion protein was allowed to incubate with the immobilized ligand at 37° C. for one hour after which the plate was washed and assayed for binding of the fusion protein. Binding was detected by the addition of an immunodetection complex containing a monoclonal mouse anti-human IgG1 diluted 1:11,000 to a final assay concentration (FAC) of 21 ng/100 μL, a biotinylated goat anti-mouse IgG diluted 1:500, to a FAC of […], and an avidin-linked alkaline phosphatase. […] Binding of the complex to the immobilized fusion protein was quantified by measuring conversion of PNPP to para-nitrophenol (PNP) which was measured spectrophotometrically at 405 nm.

BSA = target: T2, BSA (UniProt P02769 25-607); assay: ELISA on coated Maxisorb plates, absorbance at 405 nm
T2 construct: also called BSA coating alone; BSA+wash
T2 sequence (P02769 25-607 limits assumed): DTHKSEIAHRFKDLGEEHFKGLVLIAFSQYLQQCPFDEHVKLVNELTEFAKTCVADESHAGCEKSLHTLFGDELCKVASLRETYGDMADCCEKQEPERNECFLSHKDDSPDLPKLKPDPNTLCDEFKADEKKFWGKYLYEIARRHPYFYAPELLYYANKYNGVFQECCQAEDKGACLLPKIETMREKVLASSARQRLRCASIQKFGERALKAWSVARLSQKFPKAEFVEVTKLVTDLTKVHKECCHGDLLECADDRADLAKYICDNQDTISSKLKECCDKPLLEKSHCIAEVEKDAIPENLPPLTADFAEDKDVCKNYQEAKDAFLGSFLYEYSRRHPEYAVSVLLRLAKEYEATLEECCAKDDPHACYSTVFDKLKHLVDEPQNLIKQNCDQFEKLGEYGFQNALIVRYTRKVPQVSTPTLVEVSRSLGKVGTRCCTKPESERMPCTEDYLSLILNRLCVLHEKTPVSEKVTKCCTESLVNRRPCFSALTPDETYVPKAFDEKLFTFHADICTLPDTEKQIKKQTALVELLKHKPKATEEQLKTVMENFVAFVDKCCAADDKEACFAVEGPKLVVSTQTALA
Description: as §1

[2] = target: T1, Amyloid Beta (1-40) from Biosource; assay: ELISA, ligand coated on Maxisorb plate, fusion protein detected through anti-human IgG1 complex
Description: as §1

T1 sequence (P05067 672-711 limits assumed): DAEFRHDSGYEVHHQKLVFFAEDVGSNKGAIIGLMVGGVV

binding result [1]: binds | binding result (BSA): no binding
B1: RAGE fusion protein TTP-3000 (Fc fusion)
chain: AQNITARIGEPLVLKCKGAPKKPPQRLEWKLNTGRTEAWKVLSPQGGGPWDSVARVLPNGSLFLPAVGIQDEGIFRCQAMNRNGKETKSNYRVRVYQIPGKPEIVDSASELTAGPSVFLFPPKPKDTLMISRTPEVTCVVVDVSHEDPEVKFNWYVDGVEVHNAKTKPREEQYNSTYRVVSVLTVLHQDWLNGKEYKCKVSNKALPAPIEKTISKAKGQPREPQVYTLPPSRDELTKNQVSLTCLVKGFYPSDIAVEWESNGQPENNYKTTPPVLDSDGSFFLYSKLTVDKSRWQQGNVFSCSVMHEALHNHYTQKSLSLSPGK
notes: also called TT3; three domain RAGE fusion protein

binding result [2]: binds | binding result (BSA): no binding
B2: RAGE fusion protein TTP-4000 (Fc fusion)
chain: AQNITARIGEPLVLKCKGAPKKPPQRLEWKLNTGRTEAWKVLSPQGGGPWDSVARVLPNGSLFLPAVGIQDEGIFRCQAMNRNGKETKSNYRVRVYQIPGKPEIVDSASELTAGVPNKVGTCVSEGSYPAGTLSWHLDGKPLVPNEKGVSVKEQTRRHPETGLFTLQSELMVTPARGGDPRPTFSCSFSPGLPRHRALRTAPIQPRVWEPVPLEEVQLVVEPEGGAVAPPSVFLFPPKPKDTLMISRTPEVTCVVVDVSHEDPEVKFNWYVDGVEVHNAKTKPREEQYNSTYRVVSVLTVLHQDWLNGKEYKCKVSNKALPAPIEKTISKAKGQPREPQVYTLPPSRDELTKNQVSLTCLVKGFYPSDIAVEWESNGQPENNYKTTPPVLDSDGSFFLYSKLTVDKSRWQQGNVFSCSVMHEALHNHYTQKSLSLSPGK
notes: No immunoglobulin hinge; also called TT4; four domain RAGE fusion protein
